Assay results: article PMC11437124 (Nature Communications, 2024)
One block for each binder: values may come before it.

What was measured:
[1] = biological target: these 4 clones (3.10C2, 3.27H7, 3.18E5 and 3.50G1), SPR screening; experiment: SPR
[2] = biological target: T1, TREM2 peptide 149-168 (Homo sapiens, UniProt Q9NZC2, biotinylated at the amino-terminus); experiment: ELISA
T1 chain: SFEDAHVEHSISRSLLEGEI

[3] = biological target: T2, peptide with the entire TREM2 stalk region (Homo sapiens, UniProt Q9NZC2, biotinylated at the amino-terminus); experiment: ELISA
T2 chain: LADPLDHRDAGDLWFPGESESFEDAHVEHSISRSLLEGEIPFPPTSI

[4] = biological target: T3, 18-mer TREM2 peptide (148-165) (Homo sapiens, UniProt Q9NZC2); experiment: crystal structure
T3 chain: ESFEDAHVEHSISRSLLE

Kd [1]: 0.14 to 0.67 nM
B1: human TREM2 extracellular domain (ECD) (domain or fragment)
chain: HNTTVFQGVAGQSLQVSCPYDSMKHWGRRKAWCRQLGEKGPCQRVVSTHNLWLLSFLRRWNGSTAITDDTLGGTLTITLRNLQPHDAGLYQCQSLHGSEADTLRKVLVEVLADPLDHRDAGDLWFPGESESFEDAHVEHSISRSLLEGEIPFPPTS

binding result [2]: binds
binding result [3]: binds
B2: antibody Para.09 (IgG, with the light chain of 3.10C2) (antibody, V domains shown)
VH: EVQLVETGGSLVQPGKSLRLTCATSGFPFSNVWLHWVRQSPEKHPEWVAHIKAKSDNYATYYAESVKGRFTISRDDSKSSVFLQMNSLKEEDTAIYYCTDILEYWGQGTLVTVSS
VL: DTVLTQAPLSLSVTPGESASISCRSSKSLLGVRDITSLYWYLQKPGKSPQLLIYRMSNLASGVPDRFSGSGSETDFTLKISEVETEDVGVYYCAQFLRYPYTFGPGTKLELK

binding result [4]: binds
B3: huPara.09 Fab fragment (Fab, V domains shown)
VH: EVQLVESGGGLVQPGGSLKLSCATSGFPFSNVWLHWVRQASGKGPEWVAHIKAKSDNYATYYAESVKGRFTISRDDSKNTVYLQMNSLKTEDTAVYYCTDILEYWGQGTLVTVSS
VL: DVVMTQSPLSLPVTPGEPASISCRSSRSLLTSKGITSLYWYLQKPGQSPQLLIYRMSNLASGIPDRFSGSGSGTDFTLKISRVEAEDVGVYYCAQFLVYPYTFGPGTKVEIK
